Consider six sequences from publication PMC9736018.

This data set concerns the target T1, PA3973-His6 (Pseudomonas aeruginosa PAO1161) (UniProt Q9HX43).
T1 sequence: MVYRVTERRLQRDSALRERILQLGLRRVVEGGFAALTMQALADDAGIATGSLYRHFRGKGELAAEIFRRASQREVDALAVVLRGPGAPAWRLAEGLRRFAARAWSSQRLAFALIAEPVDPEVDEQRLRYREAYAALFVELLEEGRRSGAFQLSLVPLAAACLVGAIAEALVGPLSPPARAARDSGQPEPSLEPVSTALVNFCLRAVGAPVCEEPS
Nature of the data set: EMSA. The conditions noted are these: 10 mM Tris-HCl pH 8.5, 10 mM MgCl2, 100 mM KCl, 0.1 mg/mL BSA; ~100 ng DNA plus ~300 ng NS competitor in 20 uL; 23 C, 30 min; 1.5% agarose, 0.5x TBE, 4 C ….
In the case of “GCGAATTCGCATGCGGCGCTGGAGATTCCCGGCGAGGGCGCGGTGGGCATGTGCTGGCGCGACGAACCGCACCGCGACCGTGCCAGCGAAGACCTGCTGGCCTGCCTGCGCGAAGGCGCGGCGGCCGAGTAGGGCGCCGGCCGGCGGGTGCTATTGCAAAAAGGCCGCGGCTTCTCGACAATGCGATTCATTATCATTCATGTGTCGCCCCGACTTTCCCATGGGATCCGC (double strand) [PA2468p]”, the binding entry was “binds more weakly”. With “GAGGATCCGTGGGACTCCTTGGGTCGGGCCGGTGGCGAATAGCCAGGGGGACGTCGGGCGCACAAGGTACTGCCAGAAAAACGCTAATGCAAATAATTATCAAATGGATTCAGATATGCGTTTTGTGGCAAAGTTCACCTGTTTTTGCGCGTAGCGCGACCGAACCGGATATGCCCGAGGAACCGTCGATGAGCAGCACTCCCAGCCTTTCCCATTCCCCTGCCGAGCGCATGCGAATTCGC (double strand) [PA4710p]” the entry was “binds more weakly”; with “GCGAATTCGCATGCCACCACGGTTGATCCATAGGCTTCGGTCCGCGCTGCGGTGGCGCGGGCGGCGCCCATGATACCGATTCCCCGGGGCGGTGGGGCGCCGCGGAAGGGACGGGCGTAGGAGATTTCATATTTCGCAATGAGGAATCTATTCCCCATTGAGGAATGTTCTGGTGGCGTGATAGCCTGAATGGAAAAGAGAGTCATTCCCATTTGGAGAAGATCCTGGATCCGC (double strand) [PA4156p]”, “binds more weakly”.

In the case of “GAGGATCCGGGGCGGGCTCCGGAGGGTGTTCAGCTCCTAGCATAGCGCCCTCGCCTTGCGCCGTTCAGACCTTCGCGCAGCGCCCCTCGCGGCCGCGCGCCAGTTCCCTGTTGTCCTGGTCGTAGAGCTTCGCCCAGGGACGGAAGCCGATGTGCCCGGCCTCCAGGCGGTAGCGCTGGCCGGCGCTGAAGTCCTTGAACTTGAGGTTGAGCTGGCAATCGCGCCAGAGCGGGCTGTCCACGGGGCCGGCATGCGAATTCGC (double strand) [PA0061p]”, the binding result is given as “binds”.

With “GCGAATTCGCATGCGATGGGCGGGAATTGTTGGTCGATTTATGACTTGTAGTTTCTCTGTCGTATGCCTTCAGAACTTGTTGAAGGCTTTTCGGCTCGATTGCACAATGCCGCGCCAAGGTTCGTTCGCGAATCGCGGTATGTGAGCTAGACCTCCGCAGCCGGTGCGCCATCCGCAGTGCCCCGGACTACTCGACAATCACGCAGGAGATTCGTGAGGATCCGC (double strand) [PA0195p]”, the binding entry is on record as “binds”. Then “GAGAATTCGCATGCCAATGGCGGCGAGGAAAGCGCCTGCGGCTGGTGCCGTGACAAGTGGGGCATCTCCTGGCAGATCACCCCGCGCGTACTCAGCGAAGCCATCGCCAGCCCCGACCGCGCGGCGGCCAGGCGCGCCTTCGAGGCGATGATGACGATGGGCAGGATCGATATCGCCACCATAGAGAAGGCCTTCAAGGGCTGAACGCCCCAACGCCTTGCAAAGGAGTCACGAAGGATCCGC (double strand) [PA2722p]”, with “binds”.
